{"source": "paper PMC5371819", "about": "“Structural intermediates and directionality of the swiveling motion of Pyruvate Phosphate Dikinase” (Scientific Reports, 2017)", "proteins": {"B1": {"name": "Pyruvate phosphate dikinase from Flaveria trinervia (C4-isoform) (enzyme, UniProt P22221 78-953, looked up)", "chain": "TAKKRVFTFGKGRSEGNRDMKSLLGGKGANLAEMSSIGLSVPPGLTISTEACEEYQQNGKSLPPGLWDEISEGLDYVQKEMSASLGDPSKPLLLSVRSGAAISMPGMMDTVLNLGLNDEVVAGLAGKSGARFAYDSYRRFLDMFGNVVMGIPHSLFDEKLEQMKAEKGIHLDTDLTAADLKDLVEKYKNVYVEAKGEKFPTDPKKQLELAVNAVFDSWDSPRANKYRSINQITGLKGTAVNIQSMVFGNMGNTSGTGVLFTRNPSTGEKKLYGEFLINAQGEDVVAGIRTPEDLGTMETCMPEAYKELVENCEILERHYKDMMDIEFTVQENRLWMLQCRTGKRTGKGAVRIAVDMVNEGLIDTRTAIKRVETQHLDQLLHPQFEDPSAYKSHVVATGLPASPGAAVGQVCFSAEDAETWHAQGKSAILVRTETSPEDVGGMHAAAGILTARGGMTSHAAVVARGWGKCCVSGCADIRVNDDMKIFTIGDRVIKEGDWLSLNGTTGEVILGKQLLAPPAMSNDLEIFMSWADQARRLKVMANADTPNDALTARNNGAQGIGLCRTEHMFFASDERIKAVRKMIMAVTPEQRKVALDLLLPYQRSDFEGIFRAMDGLPVTIRLLDPPLHEFLPEGDLEHIVNELAVDTGMSADEIYSKIENLSEVNPMLGFRGCRLGISYPELTEMQVRAIFQAAVSMTNQGVTVIPEIMVPLVGTPQELRHQISVIRGVAANVFAEMGVTLEYKVGTMIEIPRAALIAEEIGKEADFFSFGTNDLTQMTFGYSRDDVGKFLQIYLAQGILQHDPFEVIDQKGVGQLIKMATEKGRAANPSLKVGICGEHGGEPSSVAFFDGVGLDYVSCSPFRVPIARLAAAQVIV", "notes": "domains NBD aa 1-340, CD aa 380-515, PBD aa 535-874; Cloned into pET-16b with a histidine10 tag and a TEV site; Co-crystallized with PEP and NADH (5JVJ) or PEP and 2'-Br-dAppNHp (5JVL); also called FtPPDK; C4-PPDK"}}, "biological_target": "the molecule itself", "experiment": "crystal structure; FtPPDK 10 mg/mL co-crystallized with 20 mM PEP and 10 mM NADH, microbatch, 17% PEG 3350, 100 mM MOPS pH 7, 100 mM magnesium formate, 21 °C; PDB 5JVJ, two monomers in the ASU"}
{"protein": "B1", "values": [{"measurement": "binding result", "value": "binds"}]}
